Results taken from US20200024322A1 (Eli Lilly, published 2020).
Numbered stars: 1 amine (or outer) side, 2 acyl side, 3 side chain; on linkers, the order of the positions; unused ones are H or OH. Square brackets hold non-standard residues; d marks the D form. Side chains are listed from the residue outwards. Ends that are not written are not given here. * marks the point of attachment. C20 diacid = O=C(O)CCCCCCCCCCCCCCCCCCC(=O)*; C18 diacid = O=C(O)CCCCCCCCCCCCCCCCC(=O)*; γGlu = O=C(O)[C@H](CCC(=O)[*:2])N[*:1]; AEEA = NCCOCCOCC(=O)O; Aib = CC(C)(N)C(=O)O

T1: human GIP receptor (human, UniProt P48546 22-466)
T1 construct: whole, on cells; also called hGIPR; hGIP-R
T1 sequence (looked up): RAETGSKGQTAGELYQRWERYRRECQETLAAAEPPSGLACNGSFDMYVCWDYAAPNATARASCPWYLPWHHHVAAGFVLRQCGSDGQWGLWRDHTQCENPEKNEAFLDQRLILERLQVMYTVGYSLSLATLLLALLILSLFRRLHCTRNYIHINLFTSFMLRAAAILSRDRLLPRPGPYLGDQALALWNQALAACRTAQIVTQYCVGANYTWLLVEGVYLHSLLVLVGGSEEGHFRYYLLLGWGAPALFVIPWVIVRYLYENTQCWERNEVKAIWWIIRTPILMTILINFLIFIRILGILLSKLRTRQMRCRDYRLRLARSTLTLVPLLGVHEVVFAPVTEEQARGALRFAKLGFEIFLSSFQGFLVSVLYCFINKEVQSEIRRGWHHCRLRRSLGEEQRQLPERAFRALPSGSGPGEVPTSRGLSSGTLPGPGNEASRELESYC


What was measured:
human GLP-1 receptor = target: T2, human GLP-1 receptor (human, UniProt P43220 24-463); assay: [125I]-GLP-1 competition SPA, hGLP-1R membranes
T2 construct: whole, on cells; also called hGLP-1R; hGLP1R
Outline: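 Competition binding in 25 mM HEPES pH 7.4, 2.5 mM CaCl₂, 1 mM MgCl₂, 0.1% bacitracin, 0.003% TWEEN-20, EDTA-free protease inhibitors. IC₅₀ from four-parameter nonlinear fit; Kᵢ given as geometric mean ± SEM, n = independent replicates on different days.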

human GIP receptor = target: T1, human GIP receptor; assay: [125I]-GIP competition SPA, hGIPR membranes
human glucagon receptor = target: T3, human glucagon receptor (human, UniProt P47871 26-477); assay: [125I]-Gcg competition SPA, hGcgR membranes
T3 construct: whole, on cells; also called hGcgR; GcgR
T3 sequence (P47871 26-477): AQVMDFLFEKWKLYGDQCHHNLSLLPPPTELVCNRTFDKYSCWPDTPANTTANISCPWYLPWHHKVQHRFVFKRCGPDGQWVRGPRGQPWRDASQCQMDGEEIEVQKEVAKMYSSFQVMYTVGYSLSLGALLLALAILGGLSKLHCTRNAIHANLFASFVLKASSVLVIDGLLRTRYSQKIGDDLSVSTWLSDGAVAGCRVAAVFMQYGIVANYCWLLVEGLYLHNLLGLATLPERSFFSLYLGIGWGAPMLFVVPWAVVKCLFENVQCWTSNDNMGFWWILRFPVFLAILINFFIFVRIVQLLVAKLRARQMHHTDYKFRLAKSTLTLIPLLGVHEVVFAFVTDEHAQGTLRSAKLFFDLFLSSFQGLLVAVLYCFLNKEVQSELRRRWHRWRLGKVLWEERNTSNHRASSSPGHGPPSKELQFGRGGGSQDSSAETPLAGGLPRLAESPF

| Binder | Ki (human GLP-1 receptor) [nM] | Ki (human GIP receptor) [nM] | Ki (human glucagon receptor) [nM] |
| --- | --- | --- | --- |
| Y[Aib]EGTFTSDYSILLDKK([AEEA-AEEA-γGlu-C18 diacid])AQ[Aib]AFIEYLIEGG-NH2 (N-terminus assumed; SMILES CC[C@H](C)[C@H](NC(=O)[C@H](CC(C)C)NC(=O)[C@H](Cc1ccc(O)cc1)NC(=O)[C@H](CCC(=O)O)NC(=O)[C@@H](NC(=O)[C@H](Cc1ccccc1)NC(=O)[C@H](C)NC(=O)C(C)(C)NC(=O)[C@H](CCC(N)=O)NC(=O)[C@H](C)NC(=O)[C@H](CCCCNC(=O)COCCOCCNC(=O)COCCOCCNC(=O)CC[C@H](NC(=O)CCCCCCCCCCCCCCCCC(=O)O)C(=O)O)NC(=O)[C@H](CCCCN)NC(=O)[C@H](CC(=O)O)NC(=O)[C@H](CC(C)C)NC(=O)[C@H](CC(C)C)NC(=O)[C@@H](NC(=O)[C@H](CO)NC(=O)[C@H](Cc1ccc(O)cc1)NC(=O)[C@H](CC(=O)O)NC(=O)[C@H](CO)NC(=O)[C@@H](NC(=O)[C@H](Cc1ccccc1)NC(=O)[C@@H](NC(=O)CNC(=O)[C@H](CCC(=O)O)NC(=O)C(C)(C)NC(=O)[C@@H](N)Cc1ccc(O)cc1)[C@@H](C)O)[C@@H](C)O)[C@@H](C)CC)[C@@H](C)CC)C(=O)N[C@@H](CCC(=O)O)C(=O)NCC(=O)NCC(N)=O) [Example 267] | 1.57 | 0.0628 | 349 |
| Y[Aib]EGTFTSDYSILLDKK([AEEA-AEEA-γGlu-C18 diacid])AQ[Aib]AFIEYLIAGG-NH2 (N-terminus assumed; SMILES CC[C@H](C)[C@H](NC(=O)[C@H](CC(C)C)NC(=O)[C@H](Cc1ccc(O)cc1)NC(=O)[C@H](CCC(=O)O)NC(=O)[C@@H](NC(=O)[C@H](Cc1ccccc1)NC(=O)[C@H](C)NC(=O)C(C)(C)NC(=O)[C@H](CCC(N)=O)NC(=O)[C@H](C)NC(=O)[C@H](CCCCNC(=O)COCCOCCNC(=O)COCCOCCNC(=O)CC[C@H](NC(=O)CCCCCCCCCCCCCCCCC(=O)O)C(=O)O)NC(=O)[C@H](CCCCN)NC(=O)[C@H](CC(=O)O)NC(=O)[C@H](CC(C)C)NC(=O)[C@H](CC(C)C)NC(=O)[C@@H](NC(=O)[C@H](CO)NC(=O)[C@H](Cc1ccc(O)cc1)NC(=O)[C@H](CC(=O)O)NC(=O)[C@H](CO)NC(=O)[C@@H](NC(=O)[C@H](Cc1ccccc1)NC(=O)[C@@H](NC(=O)CNC(=O)[C@H](CCC(=O)O)NC(=O)C(C)(C)NC(=O)[C@@H](N)Cc1ccc(O)cc1)[C@@H](C)O)[C@@H](C)O)[C@@H](C)CC)[C@@H](C)CC)C(=O)N[C@@H](C)C(=O)NCC(=O)NCC(N)=O) [Example 273] | 1.13 | 0.0698 | 724 |
| Y[Aib]EGTFTSDYSILLDKK([AEEA-AEEA-γGlu-C20 diacid])AQ[Aib]AFIEYLIAGGPSSGAPPPS-NH2 (N-terminus assumed; SMILES CC[C@H](C)[C@H](NC(=O)[C@H](CC(C)C)NC(=O)[C@H](Cc1ccc(O)cc1)NC(=O)[C@H](CCC(=O)O)NC(=O)[C@@H](NC(=O)[C@H](Cc1ccccc1)NC(=O)[C@H](C)NC(=O)C(C)(C)NC(=O)[C@H](CCC(N)=O)NC(=O)[C@H](C)NC(=O)[C@H](CCCCNC(=O)COCCOCCNC(=O)COCCOCCNC(=O)CC[C@H](NC(=O)CCCCCCCCCCCCCCCCCCC(=O)O)C(=O)O)NC(=O)[C@H](CCCCN)NC(=O)[C@H](CC(=O)O)NC(=O)[C@H](CC(C)C)NC(=O)[C@H](CC(C)C)NC(=O)[C@@H](NC(=O)[C@H](CO)NC(=O)[C@H](Cc1ccc(O)cc1)NC(=O)[C@H](CC(=O)O)NC(=O)[C@H](CO)NC(=O)[C@@H](NC(=O)[C@H](Cc1ccccc1)NC(=O)[C@@H](NC(=O)CNC(=O)[C@H](CCC(=O)O)NC(=O)C(C)(C)NC(=O)[C@@H](N)Cc1ccc(O)cc1)[C@@H](C)O)[C@@H](C)O)[C@@H](C)CC)[C@@H](C)CC)C(=O)N[C@@H](C)C(=O)NCC(=O)NCC(=O)N1CCC[C@H]1C(=O)N[C@@H](CO)C(=O)N[C@@H](CO)C(=O)NCC(=O)N[C@@H](C)C(=O)N1CCC[C@H]1C(=O)N1CCC[C@H]1C(=O)N1CCC[C@H]1C(=O)N[C@@H](CO)C(N)=O, also called GG-709) [Example 288] | 1.6 | 0.058 | 345 |
| F[Aib]EGTFTSDYSILLDKK([AEEA-AEEA-γGlu-C20 diacid])AQ[Aib]AFIEYLIEGGPSSGAPPPS-NH2 [Example 326] | 2.92 | 0.251 | 207 |
| Y[Aib]EGTFTSDYSILLDKK([AEEA-AEEA-γGlu-C18 diacid])AQ[Aib]TFIEYLIEGGPSSG-NH2 (N-terminus assumed; SMILES CC[C@H](C)[C@H](NC(=O)[C@H](CC(C)C)NC(=O)[C@H](Cc1ccc(O)cc1)NC(=O)[C@H](CCC(=O)O)NC(=O)[C@@H](NC(=O)[C@H](Cc1ccccc1)NC(=O)[C@@H](NC(=O)C(C)(C)NC(=O)[C@H](CCC(N)=O)NC(=O)[C@H](C)NC(=O)[C@H](CCCCNC(=O)COCCOCCNC(=O)COCCOCCNC(=O)CC[C@H](NC(=O)CCCCCCCCCCCCCCCCC(=O)O)C(=O)O)NC(=O)[C@H](CCCCN)NC(=O)[C@H](CC(=O)O)NC(=O)[C@H](CC(C)C)NC(=O)[C@H](CC(C)C)NC(=O)[C@@H](NC(=O)[C@H](CO)NC(=O)[C@H](Cc1ccc(O)cc1)NC(=O)[C@H](CC(=O)O)NC(=O)[C@H](CO)NC(=O)[C@@H](NC(=O)[C@H](Cc1ccccc1)NC(=O)[C@@H](NC(=O)CNC(=O)[C@H](CCC(=O)O)NC(=O)C(C)(C)NC(=O)[C@@H](N)Cc1ccc(O)cc1)[C@@H](C)O)[C@@H](C)O)[C@@H](C)CC)[C@@H](C)O)[C@@H](C)CC)C(=O)N[C@@H](CCC(=O)O)C(=O)NCC(=O)NCC(=O)N1CCC[C@H]1C(=O)N[C@@H](CO)C(=O)N[C@@H](CO)C(=O)NCC(N)=O) [Example 321] | 4.2 | 0.064 | 770 |
| Y[Aib]EGTFTSDYSILLDKK([AEEA-AEEA-γGlu-C18 diacid])AQ[Aib]HFIEYLIEGGPSSG-NH2 (N-terminus assumed; SMILES CC[C@H](C)[C@H](NC(=O)[C@H](CC(C)C)NC(=O)[C@H](Cc1ccc(O)cc1)NC(=O)[C@H](CCC(=O)O)NC(=O)[C@@H](NC(=O)[C@H](Cc1ccccc1)NC(=O)[C@H](Cc1c[nH]cn1)NC(=O)C(C)(C)NC(=O)[C@H](CCC(N)=O)NC(=O)[C@H](C)NC(=O)[C@H](CCCCNC(=O)COCCOCCNC(=O)COCCOCCNC(=O)CC[C@H](NC(=O)CCCCCCCCCCCCCCCCC(=O)O)C(=O)O)NC(=O)[C@H](CCCCN)NC(=O)[C@H](CC(=O)O)NC(=O)[C@H](CC(C)C)NC(=O)[C@H](CC(C)C)NC(=O)[C@@H](NC(=O)[C@H](CO)NC(=O)[C@H](Cc1ccc(O)cc1)NC(=O)[C@H](CC(=O)O)NC(=O)[C@H](CO)NC(=O)[C@@H](NC(=O)[C@H](Cc1ccccc1)NC(=O)[C@@H](NC(=O)CNC(=O)[C@H](CCC(=O)O)NC(=O)C(C)(C)NC(=O)[C@@H](N)Cc1ccc(O)cc1)[C@@H](C)O)[C@@H](C)O)[C@@H](C)CC)[C@@H](C)CC)C(=O)N[C@@H](CCC(=O)O)C(=O)NCC(=O)NCC(=O)N1CCC[C@H]1C(=O)N[C@@H](CO)C(=O)N[C@@H](CO)C(=O)NCC(N)=O) [Example 322] | 2.31 | 0.175 | 1030 |
| YXEGTFTSDYSIXLDKKAQXAFIEYLIAGGPSSGAPPPS (Aib2; αMeL13; K17((2-[2-(2-Amino-ethoxy)-ethoxy]-acetyl)2-(γ-Glu)-CO-(CH2)18-CO2H); Aib20; C-terminal NH2) [Example 324] | 0.609 | 0.0278 | 449 |
| XXEGTFTSDYSIXLDKKAQXAFIEYLIAGGPSSGAPPPS (D-Tyr1; Aib2; αMeL13; K17((2-[2-(2-Amino-ethoxy)-ethoxy]-acetyl)2-(γ-Glu)-CO-(CH2)18-CO2H); Aib20; C-terminal NH2) [Example 340] | 2.08 | 0.0507 | 250 |
| XXEGTFTSDYSIXLDKKAQXEFIEYLIAGGPSSGAPPPS (D-Tyr1; Aib2; αMeL13; K17((2-[2-(2-Amino-ethoxy)-ethoxy]-acetyl)2-(γ-Glu)-CO-(CH2)18-CO2H); Aib20; C-terminal NH2) [Example 290] | 2.44 | 0.0617 | 308 |
| FXEGTFTSDYSIXLDKKAQXAFIEYLIAGGPSSGAPPPS (Aib2; αMeL13; K17((2-[2-(2-Amino-ethoxy)-ethoxy]-acetyl)2-(γ-Glu)-CO-(CH2)18-CO2H); Aib20; C-terminal NH2) [Example 337] | 1.61 | 0.0363 | 335 |
| YXEGTFTSDYSIXLDKKAQXEFIEYLIAGGPSSGAPPPS (Aib2; αMeL13; K17((2-[2-(2-Amino-ethoxy)-ethoxy]-acetyl)-(γ-Glu)-CO-(CH2)18-CO2H); Aib20; C-terminal NH2) [Example 339] | 2.69 | 0.0388 | 873 |
| YXEGTFTSDYSIXLDEKAQXAFIEYLIEGGPSSGAPPPS (Aib2; αMeL13; K17((2-[2-(2-Amino-ethoxy)-ethoxy]-acetyl)2-(γ-Glu)-CO-(CH2)16-CO2H); Aib20; C-terminal NH2) [Example 323] | 1.65 | 0.0516 | 300 |
| YXEGTFTSDYSIXLDEKAQXAFIEYLIAGGPSSGAPPPS (Aib2; αMeL13; K17((2-[2-(2-Amino-ethoxy)-ethoxy]-acetyl)2-(γ-Glu)-CO-(CH2)18-CO2H); Aib20; C-terminal NH2) [Example 332] | 7.87 | 0.0497 | 397 |
| FXEGTFTSDYSIXLDKKAQXAFIEYLIEGGPSSGAPPPS (Aib2; αMeL13; K17((2-[2-(2-Amino-ethoxy)-ethoxy]-acetyl)2-(γ-Glu)-CO-(CH2)18-CO2H); Aib20; C-terminal NH2) [Example 327] | 2.1 | 0.0667 | 114 |
| YXEGTFTSDYSIXLDKKAQXEFIEYLIEGGPSSGAPPPS (Aib2; αMeL13; K17((2-[2-(2-Amino-ethoxy)-ethoxy]-acetyl)2-(γ-Glu)-CO-(CH2)18-CO2H); Aib20; C-terminal NH2) [Example 333] | 4.25 | 0.0634 | 578 |
